Results taken from IntAct's records for PubMed 19534813.

B1: Twist-related protein 1 (Homo sapiens), Q15672 (parent)
chain: MMQDVSSSPVSPADDSLSNSEEEPDRQQPPSGKRGGRKRRSSRRSAGGGAGPGGAAGGGVGGGDEPGSPAQGKRGKKSAGCGGGGGAGGGGGSSSGGGSPQSYEELQTQRVMANVRERQRTQSLNEAFAALRKIIPTLPSDKLSKIQTLKLAARYIDFLYQVLQSDELDSKMASCSYVAHERLSYAFSVWRMEGAWSMSASH

Variants of: B1
Settings: with itf2_human TCF4, P15884
Sequence of itf2_human TCF4, P15884 (P15884 whole entry): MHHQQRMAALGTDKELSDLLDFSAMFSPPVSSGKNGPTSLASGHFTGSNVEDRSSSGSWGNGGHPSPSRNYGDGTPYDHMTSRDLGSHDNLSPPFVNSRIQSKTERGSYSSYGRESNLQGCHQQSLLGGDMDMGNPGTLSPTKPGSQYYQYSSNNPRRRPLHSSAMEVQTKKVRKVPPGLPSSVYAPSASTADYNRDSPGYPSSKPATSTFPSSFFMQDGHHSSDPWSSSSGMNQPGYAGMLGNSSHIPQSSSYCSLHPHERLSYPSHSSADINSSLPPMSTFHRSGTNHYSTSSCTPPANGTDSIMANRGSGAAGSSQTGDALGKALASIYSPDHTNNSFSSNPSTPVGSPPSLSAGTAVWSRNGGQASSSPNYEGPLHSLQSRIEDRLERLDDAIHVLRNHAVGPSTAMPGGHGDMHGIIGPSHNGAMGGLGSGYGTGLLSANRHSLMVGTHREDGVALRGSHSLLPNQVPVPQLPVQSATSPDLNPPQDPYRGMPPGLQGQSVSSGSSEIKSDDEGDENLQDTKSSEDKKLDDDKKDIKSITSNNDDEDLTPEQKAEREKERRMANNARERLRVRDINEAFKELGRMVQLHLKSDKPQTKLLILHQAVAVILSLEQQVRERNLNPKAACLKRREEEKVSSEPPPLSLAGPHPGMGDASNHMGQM

Effect of a mutation on the interaction, with no effect:
MMQDVSSSPVSPADDSLSNSEEEPDRQQPPSGKRGGRRRRSSRRSAGGGAGPGGAAGGGVGGGDEPGSPAQGKRGKKSAGCGGGGGAGGGGGSSSGGGSPQSYEELQTQRVMANVRERQRTQSLNEAFAALRKIIPTLPSDKLSKIQTLKLAARYIDFLYQVLQSDELDSKMASCSYVAHERLSYAFSVWRMEGAWSMSASH [K38R]
MMQDVSSSPVSPADDSLSNSEEEPDRQQPPSGKRGGRKRRSSRRSAGGGAGPGGAAGGGVGGGDEPGSPAQGRRGKKSAGCGGGGGAGGGGGSSSGGGSPQSYEELQTQRVMANVRERQRTQSLNEAFAALRKIIPTLPSDKLSKIQTLKLAARYIDFLYQVLQSDELDSKMASCSYVAHERLSYAFSVWRMEGAWSMSASH [K73R]
MMQDVSSSPVSPADDSLSNSEEEPDRQQPPSGKRGGRKRRSSRRSAGGGAGPGGAAGGGVGGGDEPGSPAQGKRGKRSAGCGGGGGAGGGGGSSSGGGSPQSYEELQTQRVMANVRERQRTQSLNEAFAALRKIIPTLPSDKLSKIQTLKLAARYIDFLYQVLQSDELDSKMASCSYVAHERLSYAFSVWRMEGAWSMSASH [K77R]
